In US20180318419A1 (YALE UNIVERSITY, published 2018):

T1: human myelin-associated glycoprotein (MAG) (human, UniProt P20916 20-626)
T1 construct: Expressed on transfected HEK293T cells from the human membrane gene library; also called Siglec 4; human MAG
T1 sequence: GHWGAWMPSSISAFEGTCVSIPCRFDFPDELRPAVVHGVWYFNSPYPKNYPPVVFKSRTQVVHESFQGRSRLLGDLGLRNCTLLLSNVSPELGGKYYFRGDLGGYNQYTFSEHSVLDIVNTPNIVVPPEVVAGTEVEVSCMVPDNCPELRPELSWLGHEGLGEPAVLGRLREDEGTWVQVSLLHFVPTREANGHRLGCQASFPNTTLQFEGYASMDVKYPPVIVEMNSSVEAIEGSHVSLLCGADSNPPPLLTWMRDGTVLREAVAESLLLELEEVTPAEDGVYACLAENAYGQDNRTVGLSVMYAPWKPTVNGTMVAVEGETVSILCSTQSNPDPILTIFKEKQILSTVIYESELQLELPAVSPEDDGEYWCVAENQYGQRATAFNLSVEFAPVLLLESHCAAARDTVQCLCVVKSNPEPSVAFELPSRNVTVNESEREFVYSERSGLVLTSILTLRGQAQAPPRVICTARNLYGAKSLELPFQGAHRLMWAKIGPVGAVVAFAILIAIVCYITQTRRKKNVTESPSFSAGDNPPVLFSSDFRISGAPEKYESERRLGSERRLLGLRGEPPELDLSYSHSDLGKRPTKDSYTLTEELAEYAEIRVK

T2: human leucine rich repeat containing 4C (LRRC4C) (human, UniProt Q9HCJ2 45-640)
T2 construct: also called human LRRC4; NGL1
T2 sequence: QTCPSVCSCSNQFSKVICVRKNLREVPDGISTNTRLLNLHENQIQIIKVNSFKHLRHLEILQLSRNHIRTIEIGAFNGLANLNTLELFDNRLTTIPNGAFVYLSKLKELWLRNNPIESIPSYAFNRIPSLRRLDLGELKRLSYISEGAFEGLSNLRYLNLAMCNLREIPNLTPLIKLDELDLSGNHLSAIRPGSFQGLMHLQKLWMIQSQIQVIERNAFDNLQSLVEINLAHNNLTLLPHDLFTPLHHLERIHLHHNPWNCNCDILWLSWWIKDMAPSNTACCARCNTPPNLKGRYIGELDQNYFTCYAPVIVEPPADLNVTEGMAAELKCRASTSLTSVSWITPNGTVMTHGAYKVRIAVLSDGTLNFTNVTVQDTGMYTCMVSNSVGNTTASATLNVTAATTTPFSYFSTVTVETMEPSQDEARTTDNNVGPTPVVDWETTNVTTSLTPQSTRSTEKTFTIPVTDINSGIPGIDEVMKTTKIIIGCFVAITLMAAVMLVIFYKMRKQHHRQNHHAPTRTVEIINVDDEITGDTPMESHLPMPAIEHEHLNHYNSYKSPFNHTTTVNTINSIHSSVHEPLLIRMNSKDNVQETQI

T3: LRRC4C (species not stated) (Homo sapiens (Human), UniProt Q9HCJ2 45-640, limits assumed)
T3 construct: also called leucine rich repeat containing 4C
T3 sequence: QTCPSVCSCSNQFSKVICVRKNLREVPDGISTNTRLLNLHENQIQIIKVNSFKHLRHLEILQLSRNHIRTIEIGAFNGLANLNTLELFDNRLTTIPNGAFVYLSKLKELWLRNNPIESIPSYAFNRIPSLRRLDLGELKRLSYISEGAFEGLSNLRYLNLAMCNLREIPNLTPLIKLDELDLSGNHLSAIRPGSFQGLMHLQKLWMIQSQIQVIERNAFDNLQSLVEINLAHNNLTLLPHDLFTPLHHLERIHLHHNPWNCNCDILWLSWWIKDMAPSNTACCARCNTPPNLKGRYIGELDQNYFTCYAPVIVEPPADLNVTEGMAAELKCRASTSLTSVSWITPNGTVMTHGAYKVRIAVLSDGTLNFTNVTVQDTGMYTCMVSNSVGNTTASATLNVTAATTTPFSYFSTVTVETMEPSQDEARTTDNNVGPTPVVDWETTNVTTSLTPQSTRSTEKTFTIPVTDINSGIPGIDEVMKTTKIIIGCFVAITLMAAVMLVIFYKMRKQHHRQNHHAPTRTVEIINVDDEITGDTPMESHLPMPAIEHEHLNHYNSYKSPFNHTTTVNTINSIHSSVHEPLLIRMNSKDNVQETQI

T4: MAG (species not stated) (Homo sapiens (Human), UniProt P20916 20-626, limits assumed)
T4 construct: also called myelin-associated glycoprotein
T4 sequence: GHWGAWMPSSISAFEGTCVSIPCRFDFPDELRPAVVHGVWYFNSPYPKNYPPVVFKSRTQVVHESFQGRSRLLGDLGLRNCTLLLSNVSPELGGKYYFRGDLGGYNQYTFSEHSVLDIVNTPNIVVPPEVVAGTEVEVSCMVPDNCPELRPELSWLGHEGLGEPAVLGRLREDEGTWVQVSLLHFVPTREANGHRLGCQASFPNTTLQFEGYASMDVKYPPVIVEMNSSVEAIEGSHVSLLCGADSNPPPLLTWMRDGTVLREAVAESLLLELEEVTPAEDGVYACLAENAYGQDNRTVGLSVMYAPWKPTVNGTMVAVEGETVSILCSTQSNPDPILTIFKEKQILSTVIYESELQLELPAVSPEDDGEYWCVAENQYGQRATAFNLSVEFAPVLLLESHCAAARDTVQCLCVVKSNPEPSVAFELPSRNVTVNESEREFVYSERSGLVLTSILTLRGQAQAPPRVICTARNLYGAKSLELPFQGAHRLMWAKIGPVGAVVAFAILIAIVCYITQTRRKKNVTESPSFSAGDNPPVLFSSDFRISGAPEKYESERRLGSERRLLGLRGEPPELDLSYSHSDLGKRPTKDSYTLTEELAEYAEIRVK


Tests used:
[1] = biological target: T1, human myelin-associated glycoprotein …; assay: genome-scale human receptor array; transfected HEK293T cells, anti-Fc FMAT blue secondary antibody
Text: (§1) To identify the ligand for Siglec 15, a Siglec 15-Fc fusion protein was generated by fusing the extracellular domain of each molecule with a mouse or human Fc tag (Dong H, et al., Nat Med. 1999; 5(12): 1365-9) and screened in the newly established genome scale human receptor array (Yao, S et al., Immunity 2011, 34(5):729-40). Briefly, the complete human membrane gene library containing over 6,200 genes was collected, maintained, and diluted by OPTI-MEM media and placed individually into four 1,536-well plates at 40 ng/well, through a robotic system. Lipofectamine 2000 was added to each well and mixed with plasmids for 30 minutes. Two thousand HEK293T cells were added subsequently to each well to perform transient transfection. Eight hours after transfection, 10 ng of human Siglec 15-Fc and anti-Fc FMAT blue secondary antibody were added to each well. The plates were read 24 hours after transfection using the Applied Biosystems 8200 cellular detection system and analyzed using the CDS 8200 software. Human Fc Receptor genes served as internal positive controls for the assay.

[2] = biological target: T2, human leucine rich repeat containing 4C …; assay: as above
Text: as §1

[3] = biological target: T3, LRRC4C (species not stated); assay: binding of Siglec 15 point mutant, FIG. 7
[4] = biological target: T4, MAG (species not stated); assay: binding of Siglec 15 point mutant, FIG. 7

| binding result [1] | binding result [2] | binding result [3] | binding result [4] | Binder |
| --- | --- | --- | --- | --- |
| binds | binds | – | – | human Siglec 15-Fc fusion protein (Fc fusion, not shown: mouse or human Fc tag) FVRTKIDTTENLLNTEVHSSPAQRWSMQVPPEVSAEAGDAAVLPCTFTHPHRHYDGPLTAIWRAGEPYAGPQVFRCAAARGSELCQTALSLHGRFRLLGNPRRNDLSLRVERLALADDRRYFCRVEFAGDVHDRYESRHGVRLHVTAAPRIVNISVLPSPAHAFRALCTAEGEPPPALAWSGPALGNSLAAVRSPREGHGHLVTAELPALTHDGRYTCTAANSLGRSEASVYLFRFHGASGAST |
| – | – | no binding | no binding | Siglec 15 R143A mutant (other, also called R143A mutation) FVRTKIDTTENLLNTEVHSSPAQRWSMQVPPEVSAEAGDAAVLPCTFTHPHRHYDGPLTAIWRAGEPYAGPQVFRCAAARGSELCQTALSLHGRFRLLGNPRRNDLSLRVERLALADDRRYFCAVEFAGDVHDRYESRHGVRLHVTAAPRIVNISVLPSPAHAFRALCTAEGEPPPALAWSGPALGNSLAAVRSPREGHGHLVTAELPALTHDGRYTCTAANSLGRSEASVYLFRFHGASGAST |
